Experimental data taken from PMC6908968 (Cell, 2019).

T1: thermolysin-cleaved EBOV GP on Jurkat-GP cells (cleaved GP) (Zaire ebolavirus, Makona (GP1 core …, strain))
T1 chain 1: not shown
T1 chain 2: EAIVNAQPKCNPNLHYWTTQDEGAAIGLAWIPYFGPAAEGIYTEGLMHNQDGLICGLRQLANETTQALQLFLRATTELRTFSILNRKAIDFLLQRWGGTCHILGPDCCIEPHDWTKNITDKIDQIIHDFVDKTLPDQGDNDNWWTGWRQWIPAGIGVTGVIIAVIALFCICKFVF

B1: 5.6.c2517 (antibody, V domains shown)
VH: QVQLQQWGAGLLKPSETLSLSCSVYPGSFSGYYWAWIRQPPGKGLEWIGEINHSGSTKYNPSLKSRVTISIDTSKNQLSLKMSSVTAADSAVYYCASLTRSSWFRAFDYWGQGTLVTVSS
VL: QSALTQPASVSGSPGQSITISCTGSSSDIGGYDYVSWYQQHPGKAPKLMIFDVSDRPSGVSNRFSGSKSGNTASLTISGLQPEDEADYYCSSYTSISSSYVFGTGTKVTVL
B2: 5.6.c2685 (antibody, V domains shown)
VH: EVQLVESGGGLVQPGGSLRLSCAASGFTFSRSWMNWVRQAPGKGLEWVANIKQDGSEKYYVDSVKGRFTISRDNAKNSLYLQMNSLRAEDTGVYYCAKATVTTELTFFYYYALDVWGQGTTVTVSS
VL: EIVMTQSPATLSVSPGERATLSCRASQSINNNLAWYQQKPGQAPRLLISDASTRATGVPARFSGSGSGTEFTLTISSLQSEDSAVYHCQQYNTWPPFTFGGGTKVEIK
B3: 5.6.c2644 (antibody, V domains shown)
VH: QVQLVQSGAEVKKPGASVKVSCKASGYTFSNYGITWVRQAPGQGLEWMGWISAYNGNTKYAQKVQGRVTLSTDTSTSTAYMELRSLRSDDTAIYYCARDPGMITPGGVIEHWGQGTLVTVSS
VL: DIQMTQSPSSLSASVGDRVTVTCRASQGISNYLAWYQQKPGKVPKLLIYAASTLHSGVPSRFSGSGSGTDFTLTISSLQPEDVATYVCHNYNNAPRTFGQGTKVEIK
B4: 5.6.c2633 (antibody, V domains shown)
VH: EVQLVQSGGGLVQPGGSLTLSCAASGFTFTDHWIHWVRQAPGKGLEWVANVKPDGSEKYYVDSVKGRFTISRDNAKKSLSLQMNSLRADDTAVYYCARSQLEGLGDLFYYNFGLDVWGQGTTVTVSS
VL: EIVMTQSPATLSVSPGERATLSCRASQSVNSNLAWYQQKPGQAPRLLIYGASTRATGIPARFSGRGSGTDFTLTISSLQSEDFALYYCQQYNTWPPLTFGGGTKVEIN
B5: 5.6.c2455 (antibody, V domains shown)
VH: QVQLVESGGGVVQPGRSLRLSCAASGFTFSSYAIHWVRQAPGKGLEWVAVISDDGNHKYYADSVKGRFTISRDNSKNTLFLQMNSLRPEDTAVYYCAKNRLVFGVIWFYDMDVWGQGTTVTVSS
VL: QSVLTQPPSVSAAPGQKVTISCSGSSSNIGNNYVSWYQQLPGSAPKLLIYDNNKRPSGIPDRFSGSKSGTSATLDITGLQTGDEADYYCGTWDTSLRGVFGGGTKLTVL
B6: 5.6.c2526 (antibody, V domains shown)
VH: QVQLVESGGGVVQPGGSLRLACAASGFTFSNSGLHWIRQAPGKGLEWMTVISHDGNNKYYADSVKGRFTISRDNSENMLYLQMNSLRPEDTAVYYCARDRIRYSDWGVYYYYNGMDVWGQGTTVTVSS
VL: QSVLTQPPSVSAAPGQKVTISCSGSISNIGNHYVSWYKQLPGTAPKVLIYDNNKRPSGIPDRFSGSKSGTSATLGLTGLQTGDEADYFCGTWDSSLSVWVFGGGTKLTVL
B7: 5.6.c2627 (antibody, V domains shown)
VH: QVQLVQSGAEVKKPGSSVKVSCKASGGTFSTYGFIWVRQAPGQGLDWMGGIIPIFDKTNYGQRFQGRVTITADKSTSTVHMELSSLRSEDTAVYYCARCRSGFKDPSGYFYYAMDVWGQGTTVTVSS
VL: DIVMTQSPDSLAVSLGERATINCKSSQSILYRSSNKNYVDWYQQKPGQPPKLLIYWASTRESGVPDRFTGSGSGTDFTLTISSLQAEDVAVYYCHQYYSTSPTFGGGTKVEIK
B8: 5.6.c2569 (antibody, V domains shown)
VH: QVQLQESGPGLVKPSGTLSLTCAVSGGSISSPNWWSWVRQSPEKGLEWIGEVFHSGSTNYNPSLKSRATISVDNSKNQFSLRLTSVTAADTAIYYCARDLGWLVHGYFDPWGQGILVTVSS
VL: EIVLTQSPGTLSLSPGERATLSCRAGQSVSSSYVAWYQQKPGQAPRLLIYDTSSRATGIPDRFSGSGSGTDFTLTISRLEPEDFAVYYCQQYGTSRTWTFGQGTRVEIK
B9: 5.6.c2481 (antibody, V domains shown)
VH: QLQLQESGPGLVKPSETLSLTCTVSGGSISSSTYYWGWIRQPPGKGLEWIGSIFYRGITYYNPSLKSRVTISVDTSKNQFSLKLSSVTAADTAVYYCARGGVIVLMVYAIVPPDVWGQGTTVTVSS
VL: QSALTQPASVSGSPGQSITISCTGSRSDVGGYNYVSWYQQHPGKAPKLMISDVSNRPSGVSNRFSGSKSGNTASLTISGLQAEDEADYYCSSYTSSSTVVFGGGTKLTVL
B10: 15.0.c775 (antibody, V domains shown)
VH: EEQLLESGGGLVQPGGSLRLSCAASGFTFSGYDMSWVRQAPGKGLEWVSLLSWSGDAKYYADSVKGRFTISRDNSKNTLYLQMNSLRAEDTAVYYCAGDSSGYNNERLYYTYYMDVWGKGTTVTVSS
VL: DIQMTQSPSSVSASVGDRVTITCRANQAISSWLAWYQQKPGKAPKLLISAASSLQSGVPPRFSGSGSGTDFTLTISSLQPEDFATYYCQQANSFPLTFGGGTKVEIK
B11: 5.6.c2460 (antibody, V domains shown)
VH: QLQLQESGPGLVKPSETLSLSCSVSGGSISSSDDHWGWIRQSPGKGLEWIGSVSYSGSVYYNPSLKSRVTISVDTSKTQFSLRLRSVTAADTAVYNCARHRSDQMLFYWFDPWGQGTLVTVSS
VL: ETLMTQSPATLSVTPGESATLSCRASQTISSSLAWFQQKPGQAPRLLIHGASTRATGIPARFSGSGSGTEFTFTISSLQSEDFAVYFCQQYHNWPPTFGQGTKVEIK
B12: 15.0.c888 (antibody, V domains shown)
VH: QVQLVESGGGVVQPGRSLRLSCAASGFTFSSYGMHWVRQAPGKGLEWVAVISYDGSNEYHADSVKGRFTISRDNSKNTLYLQMNSLRPEDTAVYYCAKGARSSSSLDLYYYYYYMDVWGKGTTVTVSS
VL: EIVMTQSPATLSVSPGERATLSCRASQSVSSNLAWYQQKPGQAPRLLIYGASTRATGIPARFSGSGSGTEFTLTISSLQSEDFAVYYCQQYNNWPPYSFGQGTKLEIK
B13: 5.6.c2485 (antibody, V domains shown)
VH: QVTLKESGPVLVKPTETLTLTCTVSGFSLSTARMGVGWIRQPPGKALEWLAHIFSDDEKSYSTSLKSRLTISKDTSKSQVVLTMTNMDPVDTATYYCARIQSSEWIYYYYGMDVWGQGTTVTVSS
VL: DIQMTQSPSSVSASIGDTVTITCRASQDLSYWLAWYQQKPGKAPKLLIYAASSLQSGVPSRFSGSGSGTDFTLTISSLQPEDFATYYCQQAHSFPITFGQGTRLEIK
B14: 5.6.c2636 (antibody, V domains shown)
VH: QVQLVQSGAEVKKPGASVKVSCKASGYTFTDYYMHWVRQAPGQGLEWLGIIIPTGTLSYAQKFQGRVTMTSDTSTNTFYMELRSLRSEDTAVYFCAREKSRDFDWELFDYWGQGTLVTVSS
VL: QSVLTQPPSASGTPGQRITISCSGSSSNIGNNAVSWYQQIPGMAPKLLIYSSNQRPSGVPDRFSGSKSGTSASLAISGLQSEDETDYYCAAWDDSLNGPVFGGGTKVTVL
B15: 15.0.c770 (antibody, V domains shown)
VH: QVHLVESGGGVVQPGRSLRLSCAVSGFTFSSCGMHWVRQAPGKGLEWVAVISYDGSDKYYADSVKGRFTISRDNSNNTLYLQMNSLSIEDTAVYYCAKDYYYGSGSDLYYYYYGMDVWGLGTTVTVSS
VL: EIVLTQSPGTLSLSPGDRATLSCRASQSVSSTYLAWYQQKPGQAPRLLIYGASSRATGIPDRFSGSGSGTDFTLTISRLEPEDFAVYYCQQYVTSPYSFGQGTKLEIK
B16: 5.6.c2609 (antibody, V domains shown)
VH: QVQLVESGGGVVQPGRSLRLSCAASGIAFSNYAMHWVRQAPGKGLEWVALISSDARDQYYADSVKGRFTISRDNSKSTLYLEMNSLTSEDTAIYYCASDTSSHYSSLLYNWFDSWGQGSLVTVSS
VL: DIQMTQSPSSLSASVGDRVTITCRAIQSISTFLNWYQHKPGKAPKVLIYGASNLQSGVPSRFSGSGSGTDFTLTISSLQPEDFATYYCQQSYNTPFTFGPGTKVDIK
B17: 5.6.c2682 (antibody, V domains shown)
VH: QVQLVESGGGVVQPGRSLRLSCAASGFTFSNYAMHWVRQAPGKGLEWVAVTSDDKDNRYYADSVKGRFIISRDNSKNTLYLQMNSLRAEDTAVYHCAKDFEVFSSIFNGAYDSWGQGTLVIVSS
VL: EVVMTQSPATLSVSPGERATLSCRASQSVGFNLAWYQQKPGQAPRLLIYDASTRATGIPARFSGSGSGTEFTLTISSLQSGDFAVYYCQQYNNWPPYTFGQGTKLEIK
B18: 5.6.c2518 (antibody, V domains shown)
VH: EVQLVESGGGVVQPGGSLKLSCAASGFTFDDHAMHWVRQAPGKGPEWVSLISWDGANSYYANSVRGRFTVSRDNSKNSLFLQMNSLRTEDTALYYCARDLHNYAFWSGYPDYWGRGTLVTVSS
VL: DIQLTQFPSSLSASVGDRVVITCRASQSISSSLNWYQQKPGNAPQLLIYTVSSLYTGVPSRFSGSASGTDFTLTISSLRPEDFATYYCQQTHSVPYTFGQGTKLEIK
B19: 5.6.c2670 (antibody, V domains shown)
VH: QVQLEQWGAGLLKPSETLSLTCGVNGGSFSGSYWIWIRQSPGKGLEWIGEISHSGSTNSNPSLKSRVTISVDTSKNHFSLTLSSVTAADTAVYYCATSTLDSSSVFYYSYGLDVWGQGTTVTVSS
VL: DIQMTQSPSSVSASVGDRVTITCRASQDISSWLAWYQQKPGRAPNLLIYAASSLLSGVPSRFSGSGSGTDFTLTISSLQPGDSATYYCQQGHSLPLTFGGGTKVEIR
B20: 5.6.c3955 (antibody, V domains shown)
VH: EVQLVESGGGLVQPGGSLRLSCAASGFTFSTYSMNWLRQAPGKGLEWISFISIRSTTTYYADSVKGRFTISRDDAKNSLYLQMNSLRDEDTAVYYCARVYMRTFYFDNWGQGTLVTVSS
VL: QSALTQPASVSGSPGQSITISCTGTSSDVGDYNYVSWYQQHPGKAPKLLIFDVSNRPSGVSNRFSGSKSGNTASLTISGLQAEDEADYYCSSYASSRTSWVFGGGTKLTVL

Key:
[1] = target: T1, thermolysin-cleaved EBOV GP on …
[2] = target: EBOV GP ectodomain residues 1-636 (GPec) (Zaire ebolavirus, strain  …, UniProt Q05320)

| Binder | binding result [1] | binding result [2] |
| --- | --- | --- |
| B1 | binds | binds |
| B2 | binds | binds |
| B3 | binds | binds |
| B4 | binds | binds |
| B5 | binds | binds |
| B6 | binds | binds |
| B7 | binds | binds |
| B8 | binds | binds |
| B9 | binds | binds |
| B10 | binds | binds |
| B11 | binds | binds |
| B12 | binds | binds |
| B13 | binds | binds |
| B14 | binds | binds |
| B15 | binds | binds |
| B16 | binds | binds |
| B17 | binds | binds |
| B18 | binds | binds |
| B19 | binds | binds |
| B20 | – | binds |
